Reference: US20120294874A1

How the values were obtained:
[1] = biological target: HLA-A201/LMP-1 monomer (recombinant, membrane free, refolded complex of HLA-A201 heavy chain, beta-2 microglobulin and LMP-1 peptide …) (human; Epstein-Barr virus); test: Kaff from OD50 at two antigen concentrations (Beatty et al.), [Ag] 120 ng/ml
[2] = biological target: HLA-A201/LMP-1 monomer (recombinant, membrane free, refolded complex of HLA-A201 heavy chain, beta-2 microglobulin and LMP-1 peptide …) (human; Epstein-Barr virus); test: dose response curve, antigen at 30 ng/ml (method of Beatty et al.)
[3] = biological target: HLA-A201/LMP-1 monomer (recombinant, membrane free, refolded complex of HLA-A201 heavy chain, beta-2 microglobulin and LMP-1 peptide …) (human; Epstein-Barr virus); test: dose response curve, antigen at 120 ng/ml (method of Beatty et al.)
[4] = biological target: HLA-A201/LMP-1 monomer (recombinant, membrane free, refolded complex of HLA-A201 heavy chain, beta-2 microglobulin and LMP-1 peptide …) (human; Epstein-Barr virus); test: dose response curve, antigen at 15 ng/ml (method of Beatty et al.)
[5] = biological target: HLA-A201/LMP-1 monomer (recombinant, membrane free, refolded complex of HLA-A201 heavy chain, beta-2 microglobulin and LMP-1 peptide …) (human; Epstein-Barr virus); test: dose response curve, antigen at 60 ng/ml (method of Beatty et al.)
[6] = biological target: HLA-A201/LMP-1 monomer (recombinant, membrane free, refolded complex of HLA-A201 heavy chain, beta-2 microglobulin and LMP-1 peptide …) (human; Epstein-Barr virus); test: average Kaff (Beatty et al. method)
[7] = biological target: HLA-A201/LMP-1 monomer (recombinant, membrane free, refolded complex of HLA-A201 heavy chain, beta-2 microglobulin and LMP-1 peptide …) (human; Epstein-Barr virus); test: Kaff from OD50 at two antigen concentrations (Beatty et al.), [Ag] 15 ng/ml
[8] = biological target: HLA-A201/LMP-1 monomer (recombinant, membrane free, refolded complex of HLA-A201 heavy chain, beta-2 microglobulin and LMP-1 peptide …) (human; Epstein-Barr virus); test: Kaff from OD50 at two antigen concentrations (Beatty et al.), [Ag] 60 ng/ml
[9] = biological target: HLA-A201/LMP-1 monomer (recombinant, membrane free, refolded complex of HLA-A201 heavy chain, beta-2 microglobulin and LMP-1 peptide …) (human; Epstein-Barr virus); test: Kaff from OD50 at two antigen concentrations (Beatty et al.), [Ag] 30 ng/ml

Ka [1]: 5.7e+08 M⁻¹
[mAb] at OD50 [2]: 68.1 ng/mL
[mAb] at OD50 [3]: 26.1 ng/mL
[mAb] at OD50 [4]: 121 ng/mL
[mAb] at OD50 [5]: 54.1 ng/mL
Ka [6]: 7.17e+08 M⁻¹
Ka [7]: 4.31e+08 M⁻¹
Ka [8]: 1.01e+09 M⁻¹
Ka [9]: 8.71e+08 M⁻¹
Substance: BB7.2 (pan anti-HLA-A2), commercially available anti-HLA-A2 antibody
